According to publication PMC2874204 (Cancer cell, 2010):

Target: RUNX1 Runt domain (UniProt Q01196 50-178)
Experiment: ITC

Chain of RUNX1 Runt domain (Q01196 50-178): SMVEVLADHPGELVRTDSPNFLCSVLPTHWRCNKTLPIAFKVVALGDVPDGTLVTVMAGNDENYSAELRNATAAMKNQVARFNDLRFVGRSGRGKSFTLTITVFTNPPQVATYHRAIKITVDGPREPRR

Kd: ~709 nM
stoichiometry N: 1.17
B1: CBFβ-SMMHC_(d134-236) (type I CBFβ-SMMHC fusion protein) (other)
chain: MPRVVPDQRSKFENEEFFRKLSRECEIKYTGFRDRPHEERQARFQNACRDGRSEIAFVATGTNLSLQFFPASWQGEQRQTPSREYVDLEREAGKVYLKAPMILNGVCVIWKGWIDLQRLDGMGCLEFDEERAQLHEYETELEDERKQRALAAAAKKKLEGDLKDLELQADSAIKGREEAIKQLRKLQAQMKDFQRELEDARASRDEIFATAKENEKKAKSLEADLMQLQEDLAAAERARKQADLEKEELAEELASSLSGRNALQDEKRRLEARIAQLEEELEEEQGNMEAMSDRVRKATQQAEQLSNELATERSTAQKNESARQQLERQNKELRSKLHEMEGAVKSKFKSTIAALEAKIAQLEEQVEQEAREKQAATKSLKQKDKKLKEILLQVEDERKMAEQYKEQAEKGNARVKQLKRQLEEAEEESQRINANRRKLQRELDEATESNEAMGREVNALKSKLRRGNETSFVPSRRSGGRRVIENADGSEEETDTRDADFNGTKASE
